{"source": "the nanobody polyreactivity screen of Harvey et al. (2022)"}
{"test": "yeast display, Sf9 membrane polyspecificity reagent, FACS + sequencing; frameworks hold sequencing errors", "method_in_brief": "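Galactose-induced (36–48 hours) yeast carrying a synthetic nanobody display library were exposed to 10% biotinylated, detergent-solubilized Sf9 membrane reagent at 4 °C for 1 hour. FACS followed streptavidin microbead enrichment, using low and high (top ~1%) gates for expression (anti-HA) and reagent binding (streptavidin). Colony PCR, MiSeq 2 × 250 sequencing and CDR-length filtering followed. Labels for polyreactivity reflect the gate of origin.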"}
{"sequence": "QLQLVESGGGLVQAGGSLRLSCAASGFTFRWNAMGWYRQAPGKERELLAAITNDDSTYYADSVKGRFTISRDNAKNSVYLQLNSLKPEDTAVYYCNARYGRYLDLDTGVALAGRGYWGQGTQVTVSS", "polyreactivity (PSR sort gate)": "low polyreactivity"}
{"sequence": "QLQLVESGGGLVQAGGSLRLSCAASGFTFSAYAMGSYRQAPGKERELVAAISWSGGSTYYADSVKGRFTISRDNAKNTVYLQRNSLKPEDTAVYYCAADFHSYYRFDYWGQGTQVTVSS", "polyreactivity (PSR sort gate)": "high polyreactivity"}
{"sequence": "QLQLVESGGGLVQAGGSLRLSCAASGITLYRYVMGWYRQAPGKERELVADISGRGTSTYYADSVKGRFTISRDNAKNTVYLQMNSLKPEDTSVYYCNAEYTKTGALVIPYTYYYAADYWGQGTQVTVSS", "polyreactivity (PSR sort gate)": "low polyreactivity"}
{"sequence": "QLQLVESGGGLVQAGGSLRLSCAASGLIFPFYAMGWYRQAPGKERELVAAITSSGNTYYADSVKGLFTISRDNAKNTVYLQMNSLKPEDTAVYYCAADGSRIVKFDYWGQGTQVTVSS", "polyreactivity (PSR sort gate)": "high polyreactivity"}
{"sequence": "QLQLVESGGGLVQAGGSLRLSCAASGRIFDGNTMGWYRQAPGKERELVAAITYSGGRTSYADSVKGRFTISRDNAKNTVYLQMISLKPEDTAVYYCNARVVTGSWYEGYYWGQGTQVTVSS", "polyreactivity (PSR sort gate)": "low polyreactivity"}
{"sequence": "QLQLVESGGGLVQAGGSLRLSCAASGRIFRKNAMGWYRQAPGKERELVAAITSSGNTYYADSVKGRFTISRDNAKNTVYLQMNSLKTEDTAVYYCAARLKWLNRYGYDYWGQGTQVTVSS", "polyreactivity (PSR sort gate)": "low polyreactivity"}
{"sequence": "QLQLVESGGGLVQAGGSLRLSCAASGRIFYPYAMGWYRQAPGKERELVPAIDYSDGNSYYADSVKGRFTISRDNAKNTVYLQMNSLKPEDTAVYYWAVEYTGAWIGVWYDYWGQGTQVTVSS", "polyreactivity (PSR sort gate)": "high polyreactivity"}
{"sequence": "QLQLVESGGGLVQAGGSLRLSCAASGRIFYVNAMGWYRQAPGKERELVASITDGSSTYYADSVKGRFTISRDNAKNTVYLQMNILKPEDTAVYYCAVRAAYWGAHYYYWGQGTQVTVSS", "polyreactivity (PSR sort gate)": "high polyreactivity"}
{"sequence": "QLQLVESGGGLVQAGGSLRLSCAASGRTFDSYAMGWYRQPPGKERELVAAIYADSVKGRFTISRDIAKNTVYLQMYSLTPEDSAVYYCAAETYSGQTYLGEYDYWGQGTQVTVSS", "polyreactivity (PSR sort gate)": "low polyreactivity"}
{"sequence": "QLQLVESGGGLVQAGGSLRLSCAASGRTFQLYAMGWYRQAPGKERELVAAISYSGGSTYYADSVKGRFTISRDNAKNSVYLQTNSLKPEDTAVYYCAARPRSTRPSYYYRSAGYYWGQGTQVTLSS", "polyreactivity (PSR sort gate)": "high polyreactivity"}
{"sequence": "QLQLVESGGGLVQAGGSLRLSCAASGSIFVVNAMGWYRQAPGKERELVAAISRGGITNYADSVKGRFTISRDNAKNTVYLQMNILKPEDTAVYYCNARGSRWVKPERDYWGQGTQVTVSS", "polyreactivity (PSR sort gate)": "low polyreactivity"}
{"sequence": "QLQLVESGGGLVQAGGSLRLSCAASGSTFAANAMGRYRQAPGKERELVAASTSSGGSTYYADSVKGRFTISRDNAQNTVYLQMNSLKPEDTAVYYCAADRWYITLSIDATISYDYWGQGTQVTVSS", "polyreactivity (PSR sort gate)": "low polyreactivity"}
{"sequence": "QLQLVESGGGLVQAGGSLRLSCAASGSTFTDYAMGWYRQAPGKERELVAAISWSGGSTYYADSVKGRFTISRDNAKNTVYLQMNSLKPEDTAVYYCAFRYHGYDYWGQGTQVTVSS", "polyreactivity (PSR sort gate)": "high polyreactivity"}
{"sequence": "QLQLVESGGGLVQAGGSLRLSCAASGSTIDHNAMGWYRQAPGKERELVATISSSGGSTYYADSVKGRFTISRDNAKNTVYFQMNSLKPEDTAGYDCNRYFRRGGRYPYNYWGQGTQVTVSS", "polyreactivity (PSR sort gate)": "high polyreactivity"}
{"sequence": "QLQLVESGGGLVQAGGSLRLSCAASGSTYHINAMGWYRQAPGKERELVADINWSGGSTYYADSVKGRFTISRDNAKNTVYLQMNSLKPEDTAVYYCAADVGVFTYSPYDAGEHDYWGQGTQVTVSS", "polyreactivity (PSR sort gate)": "low polyreactivity"}
{"sequence": "QLQLVESGGGLVQAGGSLRLSCAASGYTFTSYTKGWYRQAPGKEWELVAAITWTGGRTYYADSVKGRFTISRDNAKNTVYLQMNSLKPEDTAVYFCAGSWRKVDYWGQGTQVTVSS", "polyreactivity (PSR sort gate)": "high polyreactivity"}
{"sequence": "QLQLVESGGGLVQAGGSLRLSCAPSGLTFGRYAMGGYRHAPGKERELVAAITARVGRTYYADSVKGRFTISRDNEKNTVYLQMNSLKPEDTAVYYCAAGPSYFWYSHEKYDYWGQGTQVTVSS", "polyreactivity (PSR sort gate)": "high polyreactivity"}
{"sequence": "QLQLVESGGGLVQAGGSLRLSCASTGSIFRPSPMGWYRPAPGKDRELVPDITWSGGSTYYADSVKGRFTISRDNAKNTVYLQMNSLKPEDTAVYYCAARFSYWARNSEYWGQGTQVTVSS", "polyreactivity (PSR sort gate)": "low polyreactivity"}
{"sequence": "QLQLVESGGGLVQAGGSLRRSCAPSGRILWVNAMGWSRQAPGKERELVAAISLSGGRTYYADSVKGRFTISRDNAKNTVYLQMNSLKPEDTAVYYCAARTVNYYYTTGDYWGQGTQVTVSS", "polyreactivity (PSR sort gate)": "low polyreactivity"}
{"sequence": "QLQLVESGGGLVQAVGSLRLSCAATGSIFYPYAMGWNRQAPGKERELVASISWSGGITYYADSVKGRFTISRDNAKNTVYLQMNSLKPEDTAVYYCAADFSWYLYDYDYWGQGTQVTVSS", "polyreactivity (PSR sort gate)": "low polyreactivity"}
{"sequence": "QLQLVESGGRLVQAGGSLRLSCAASGRTFGRYAMGWYIQAPGKEREFVSSISRSTGRTSYADSVKGRFTISRANAKNTVYLQMNSLKPEDTAVYYCAVRWYYYRDDTIYVLGRYDYWGQGTQVTVSS", "polyreactivity (PSR sort gate)": "high polyreactivity"}
{"sequence": "QLQLVESRGGLVQAGGSLRLSCASYGSIFIWYAMGWYRQATGKERELVAAITSSGSTNYADSVKGRFTISRDNAKNPVYLQMNSLKPEDTAVYYCAAEYTYYTYNLNYWGQGTQVTVSS", "polyreactivity (PSR sort gate)": "low polyreactivity"}
{"sequence": "QLQLVESVGGLVQAGGSLRLSCAGSGRIFGRSAMGWYTHAPGKHRALVAAISRSGGSTYYADSVKGRVTISRDKAKNTVYLQMYSLKPEDTAVYNCNRRYITYNDDYWGQGTQVTVSS", "polyreactivity (PSR sort gate)": "high polyreactivity"}
{"sequence": "QLQLVQSGGGLVQAGGILRLSCAPSGSIFTPNTMGWYSQAPGKERELVAAITIRGGSTYYADSVKGSFTISRDNANITVYLQMNSLKPEDTAVYYCATEYGLRYYLVDYWGQGTQVTVSS", "polyreactivity (PSR sort gate)": "low polyreactivity"}
{"sequence": "QMQLQESGGGLVQAGGSLRLSCAPSGTIIRVRYMGWHRQAPGKDRELVAGINGGTTTYNSDSVIGRFTISRDNANNTVFLQMNSLKPDDTAVYKCAAGASRLTYYDYWGQGTQVTVSS", "polyreactivity (PSR sort gate)": "low polyreactivity"}
{"sequence": "QMQLQESGGGLVQAGGSQRLSCAASDSISIGAGMGWYRQAPGKERELVAGISVGTSTNYADSVNGRFTISRVNAKNTVYLQMNSLKPEDTAVYYCAKGYRRVYGPFYYWGQGTQVTVSS", "polyreactivity (PSR sort gate)": "low polyreactivity"}
{"sequence": "QQLQESGGGLVQAGGSLRLSCAASGSISGSVLMGWYRQAPGKEREFVASISLGGNTNYADSVKGRFTISRENAKNTVYLQMNSLKPEVAAVYYCAAYISLFETHPYWGQGTQVTVSS", "polyreactivity (PSR sort gate)": "high polyreactivity"}
{"sequence": "QVDLVESGGGLVQAGGSLRLSCAASGRTFQFNGMGWYRQAPVKERELVAGITSGGSTYYADSVKGRFTISRDNAKTTVYLQMISLKPEDTAVYYCAKDDPYFRGSPYFGRYPYGYWGQGTEVTVSS", "polyreactivity (PSR sort gate)": "high polyreactivity"}
{"sequence": "QVELVESGGGLDQAGGSLRLSCAASGFIFRWYAMGWYRQAPGKERELVAAITRGTRTNYADSVKGRFTISRDNAKNTVYLQMNSLKPEDTAVYYCAADFSRDAYRNYYYWGQGTQVTVSS", "polyreactivity (PSR sort gate)": "high polyreactivity"}
{"sequence": "QVELVESGGGLVQAGGSLRISCDASGSTFRWYAMGWYRQGPGKERELVAAINRSGGSTYYADSVKGRFTISRDNAKNTVYLQMNSLKPEDTAVYYCEARWYSSSRWYKYNYWGQGTQVTVSS", "polyreactivity (PSR sort gate)": "high polyreactivity"}
{"sequence": "QVELVESGGGLVQAGGSLRLSCAASGLTCVSYAMGWYRQAPGKERELVAAISRSGGSTYYADSVKGRFTISRDNAKNTVYLQMNSLKPVDTAVYYGNAYSYVDFCAVYRYDYWGQGTQLTVSS", "polyreactivity (PSR sort gate)": "high polyreactivity"}
{"sequence": "QVELVESGGGLVQAGGSLRLSCPASGRTFYYYAMGWSRQEPGKERELVATITKSSGSTYYADSVKGRFTISRDNAKNTVYLQMNSLKPEDTAVYYCNADPWAKTPYYYWGQGTQVTVSS", "polyreactivity (PSR sort gate)": "high polyreactivity"}
{"sequence": "QVELVESGGGLVQPGGRLRLSCAASGRIFRYNTMGWYRQAPGKEREFVAAITQRGVNTYYADSVKGRFTISRDNAKNTVYLQRNSLKPEDTAVYYCNAKRYSYWIYRAYDYWGQGTQVTVSS", "polyreactivity (PSR sort gate)": "low polyreactivity"}
{"sequence": "QVELVVSGGGLVQAGGSLRLSCAASGRIFYRYAMGWYRQAPGKERELVAAISGRGGSTYYADSVKGRFTISRDNAKNTVYLQMNSLKPEDTAVYYCNALPVYRSLAYEVDYWGQGTQVTVSS", "polyreactivity (PSR sort gate)": "high polyreactivity"}
{"sequence": "QVHHEETGGGLVQAGGSLRLSCSASGRTFVYYDMGWYRHATGKERQLVAAIDSSGSTYYADSVKGRFTISRDNAKNTVYLQMNSLKPEDSAVYYCGAGYWFFPYWYDYWGQGTQVTVSS", "polyreactivity (PSR sort gate)": "high polyreactivity"}
{"sequence": "QVHHVDSGGGIVKAGGSLRLSCPASGFIFPRNVLGWSRQEPGKERELVAAISRSGGSTYYADSVKGRFTISRDNAKNTVYLPMNSLKPEDTAVYYGGKRTFYNGEFWGQGTQVTVSS", "polyreactivity (PSR sort gate)": "low polyreactivity"}
{"sequence": "QVHHVESGAGLVQAGGSLRLSSAASGRTFGSNTKGCYSQAPGKERELVAAITISGGSTYYADSVKGRFTISRDNAKNTVYLKMNSLKPEDTAVYYCATRLWGHGGGRTTSYMYNWRQGTQVTVSS", "polyreactivity (PSR sort gate)": "high polyreactivity"}
{"sequence": "QVHHVESGGGLVQAGGSLRISCAASGAIFFFNTMGWYRLAPGKERELVAVITSGGSTYYADSVKGRFTISRDNAKNTVYLQMNSLKPEDTAVYYCNAYTWGVGSSLDDVGYWGQGTQVTVSS", "polyreactivity (PSR sort gate)": "low polyreactivity"}
{"sequence": "QVHHVETGGGLDQAGGTLRLSCAASGRTFCTNAMGWSRQAPGKEWELVAAISSSGGSTYYADSVKGRFTISRDNAKNTVYLQMNSLKPEDTAVYYCAKGWHRGVGFCYWGQGTQVTVSS", "polyreactivity (PSR sort gate)": "high polyreactivity"}
{"sequence": "QVHIVESGGRLFQAGGSLRLSCAASGFTFAYYAMGWYRQAPGKEREMVAAISRGGTSTYYADSVKGRFTISRDNATNPVYLQMNSLKPEDTAVFYCNAVKVGYSLYDFWGQGTQVTVSS", "polyreactivity (PSR sort gate)": "high polyreactivity"}
